This note sets out measurements from publication PMC5737521 (Nucleic Acids Research, 2017).

Data set [1] deals with the molecule itself. Put plainly: crystal structure.
The target in data set [2] is T1, H. sapiens JunD bZIP domain (residues Q266-V332) (human, UniProt P17535 266-332).
T1 sequence: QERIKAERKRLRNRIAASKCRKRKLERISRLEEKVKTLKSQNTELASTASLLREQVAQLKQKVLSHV
Briefly: crystal structure.

Data set [3] deals with the molecule itself. Put plainly: fluorescence polarisation. Background: In fluorescence polarisation assays a small probe gives low polarisation when free and higher when bound to something large.
Data set [4] concerns the target T2, FosB bZIP domain;JunD bZIP domain (Homo sapiens (cloned from identical Mus …, UniProt P53539;P17535 153-219;266-332, |)).
T2 sequence 1: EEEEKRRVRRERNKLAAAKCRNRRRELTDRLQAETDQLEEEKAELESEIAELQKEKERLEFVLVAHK
T2 sequence 2: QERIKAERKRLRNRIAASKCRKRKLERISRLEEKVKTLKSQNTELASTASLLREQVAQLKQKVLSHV
Briefly: fluorescence polarization.

B1: Homo sapiens FosB bZIP domain (residues E153-K219) (domain or fragment)
chain: EEEEKRRVRRERNKLAAAKCRNRRRELTDRLQAETDQLEEEKAELESEIAELQKEKERLEFVLVAHK
Take B1: the binding result in data set [1] and in data set [2] was “binds” in each case.

B2: reduced FosB/JunD bZIP heterodimer (FJ^red) (complex)
chain 1: EEEEKRRVRRERNKLAAAKCRNRRRELTDRLQAETDQLEEEKAELESEIAELQKEKERLEFVLVAHK
chain 2: QERIKAERKRLRNRIAASKCRKRKLERISRLEEKVKTLKSQNTELASTASLLREQVAQLKQKVLSHV
With B2, in data set [3], the binding result is on record as “binds”.

B3: oxidized form of FosB/JunD bZIP heterodimer (FJ^oxi) (complex)
chain 1: EEEEKRRVRRERNKLAAAKCRNRRRELTDRLQAETDQLEEEKAELESEIAELQKEKERLEFVLVAHK
chain 2: QERIKAERKRLRNRIAASKCRKRKLERISRLEEKVKTLKSQNTELASTASLLREQVAQLKQKVLSHV
With B3, the binding result in data set [1] was “binds”.

B4: TAMRA AP-1 19-mer (cyclin-dependent kinase 5 promoter) (dsDNA)
DNA 1: CGTCGGTGACTCAAAACAC
DNA 2: GTGTTTTGAGTCACCGACG
In the case of B4, in data set [4], the binding result is on record as “binds”.
